{
  "source": "patent EP4201483A1",
  "about": "(Eberhard-Karls-Universität Tübingen, dated 2023)",
  "binders": {"B1": {"name": "SNC1 (15aa) (peptide)", "peptide": "DEIVKELRSRYNIST"}},
  "molecular_target": "T1, human heat shock protein Hsp90α (human, UniProt P07900 2-732)",
  "T1 construct": "Target protein of the dot blot assay",
  "assay": "dot blot assay, direct interaction with Hsp90α",
  "data": [
    {"binder": "B1", "values": [
      {"measurement": "binding result", "result": "no binding"}
    ]}
  ]
}
